Measurements: patent publication US20240150490A1 (MABPRO A S, published 2024)

B1: CA9hu-2 chimeric HC0LC0 (antibody, V domains shown)
VH: EVQLVETGGGLVQPKGSLKLSCAASGFTFNTNAMHWVRQAPGKGLEWVARIRSKSNNYTTYYADSVKDRFTISRDDSQSMLYLQMNNLKTEDTAMYYCVCGSWFAYWGQGTLVTVSA
VL: DIVMTQSPSSLAMSLGQKVTMSCKSSQSLLNSSNQKNYLAWFQQKPGQSPKLLVYFTSTRQSGVPDRFIGSGSGTDFTLTISSVQAEDLADYFCQQHYSIPLTFGAGTKLELK
notes: also called HC0LC0 (CA9hu-2)
B2: CA9hu-2_HC1LC5 (antibody, V domains shown)
VH: EVQLVESGGGLVQPGGSLKLSCAASGFTFNTNAMHWVRQASGKGLEWVGRIRSKSNNYTTYYADSVKDRFTISRDDSKNTAYLQMNSLKTEDTAVYYCVCGSWFAYWGQGTLVTVSS
VL: DIVMTQSPDSLAVSLGERATINCKSSQSLLNSSNQKNYLAWYQQKPGQPPKLLIYFTSTRQSGVPDRFSGSGSGTDFTLTISSLQAEDVAVYYCQQHYSIPLTFGQGTKLEIK
notes: Humanized from murine IV/18; also called HC1LC5 (CA9hu-2)
B3: CA9hu-2_HC2LC1 (antibody, V domains shown)
VH: EVQLVESGGGLVQPGGSLKLSCAASGFTFNTNAMHWVRQASGKGLEWVGRIRSKSNNYTTYYADSVKDRFTISRDDSKSTAYLQMNSLKTEDTAVYYCVCGSWFAYWGQGTLVTVSS
VL: DVVMTQSPDSLAVSLGERVTINCKSSQSLLNSSNQKNYLAWYQQKPGQSPKLLIYFTSTRQSGVPDRFSGSGSGTDFTLTISSLQAEDVAVYYCQQHYSIPLTFGQGTKLEIK
notes: Humanized from murine IV/18; also called HC2LC1 (CA9hu-2)
B4: CA9hu-2_HC1LC3 (antibody, V domains shown)
VH: EVQLVESGGGLVQPGGSLKLSCAASGFTFNTNAMHWVRQASGKGLEWVGRIRSKSNNYTTYYADSVKDRFTISRDDSKNTAYLQMNSLKTEDTAVYYCVCGSWFAYWGQGTLVTVSS
VL: DIQMTQSPDSLAVSLGERATINCKSSQSLLNSSNQKNYLAWYQQKPGQPPKLLIYFTSTRQSGVPDRFSGSGSGTDFTLTISSLQAEDVAVYFCQQHYSIPLTFGQGTKVEIK
notes: Humanized from murine IV/18; also called HC1LC3 (CA9hu-2)
B5: CA9hu-2_HC1LC2 (antibody, V domains shown)
VH: EVQLVESGGGLVQPGGSLKLSCAASGFTFNTNAMHWVRQASGKGLEWVGRIRSKSNNYTTYYADSVKDRFTISRDDSKNTAYLQMNSLKTEDTAVYYCVCGSWFAYWGQGTLVTVSS
VL: DIVMTQSPDSLAVSLGERATINCKSSQSLLNSSNQKNYLAWFQQKPGQPPNLVIYFTSTRQSGVPDRFSGSGSGTDFTLTINSLQAEDVAVYFCQQHYSIPLTFGQGTQVEIK
notes: Humanized from murine IV/18; also called HC1LC2 (CA9hu-2)
B6: CA9hu-2_HC1LC1 (antibody, V domains shown)
VH: EVQLVESGGGLVQPGGSLKLSCAASGFTFNTNAMHWVRQASGKGLEWVGRIRSKSNNYTTYYADSVKDRFTISRDDSKNTAYLQMNSLKTEDTAVYYCVCGSWFAYWGQGTLVTVSS
VL: DVVMTQSPDSLAVSLGERVTINCKSSQSLLNSSNQKNYLAWYQQKPGQSPKLLIYFTSTRQSGVPDRFSGSGSGTDFTLTISSLQAEDVAVYYCQQHYSIPLTFGQGTKLEIK
notes: Humanized from murine IV/18; also called HC1LC1 (CA9hu-2)
B7: CA9hu-2_HC1LC4 (antibody, V domains shown)
VH: EVQLVESGGGLVQPGGSLKLSCAASGFTFNTNAMHWVRQASGKGLEWVGRIRSKSNNYTTYYADSVKDRFTISRDDSKNTAYLQMNSLKTEDTAVYYCVCGSWFAYWGQGTLVTVSS
VL: DIVMTQSPDSLAVSLGERATINCKSSQSLLNSSNQKNYLAWFQQKPGQPPKVLIYFTSTRQSGVPDRFTGSGSGTDFTLTISSLQAEDVAVYYCQQHYSIPLTFGQGTKLEIK
notes: Humanized from murine IV/18; also called HC1LC4 (CA9hu-2)
B8: CA9hu-2_HC2LC2 (antibody, V domains shown)
VH: EVQLVESGGGLVQPGGSLKLSCAASGFTFNTNAMHWVRQASGKGLEWVGRIRSKSNNYTTYYADSVKDRFTISRDDSKSTAYLQMNSLKTEDTAVYYCVCGSWFAYWGQGTLVTVSS
VL: DIVMTQSPDSLAVSLGERATINCKSSQSLLNSSNQKNYLAWFQQKPGQPPNLVIYFTSTRQSGVPDRFSGSGSGTDFTLTINSLQAEDVAVYFCQQHYSIPLTFGQGTQVEIK
notes: Humanized from murine IV/18; also called HC2LC2 (CA9hu-2)

Key:
recombinant human CA IX = recombinant human CA IX (human, UniProt Q16790 38-414); experiment: SPR (Biacore T200), antibody captured on CM5 chip, rh CA IX in flow, 25 C
Protocol: In order to determinate the antigen-binding affinity of humanized variants, measurements of affinity constant (KD) for antibodies binding to CA IX were performed by SPR using a Biacore 2000 (T200 in case of CA9hu-2) instrument (GE Healthcare, Piscataway, NJ USA). Each humanized antibody variant was captured on the CM5 sensor chip and recombinant human CA IX (rh CA IX; 42 kDa; R&D Systems, Inc., Minneapolis MN, USA) protein as an antigen was added to the buffer flowing over the chip. The setting details of quantitative interaction analysis between humanized antibodies and rh CA IX were as follows: flow rate 30 μl/min; analysis temperature 25° C.; analysis buffer (10mM HEPES pH 7.4, 150 mM NaCl, […], 0.05% Tween 20). Results from SPR analysis are expressed as the equilibrium dissociation constant (KD) (Table 7).

[1] = biological target: CA IX expressed by cells (C-33a_CA IX transfectants; hypoxic BT-20, JIMT-1, 8-MG-BA and 42-MG-BA cells) (human, UniProt Q16790 38-459); experiment: cell-based or functional assay

Binder	Kd (recombinant human CA IX)	ADCC reporter luminescence, C-33a_CA IX against C-33a_neo cells [1]
B1	13.1 nM	
B2	71.3 nM	2 times
B3	53.9 nM	2 times
B4	70.5 nM	2 times
B5	56.1 nM	2 times
B6	44 nM	2 times
B7	74.9 nM	2 times
B8	87.7 nM	2 times
